From US20230167188A1 (BIOLOJIC DESIGN, published 2023)

What was measured:
[1] = target: T1, human TNFR2 (residues 1-461) expressed on HEK-TNFR2 reporter cells (human, UniProt P20333 23-461); test: cell-based or functional assay
T1 sequence (looked up): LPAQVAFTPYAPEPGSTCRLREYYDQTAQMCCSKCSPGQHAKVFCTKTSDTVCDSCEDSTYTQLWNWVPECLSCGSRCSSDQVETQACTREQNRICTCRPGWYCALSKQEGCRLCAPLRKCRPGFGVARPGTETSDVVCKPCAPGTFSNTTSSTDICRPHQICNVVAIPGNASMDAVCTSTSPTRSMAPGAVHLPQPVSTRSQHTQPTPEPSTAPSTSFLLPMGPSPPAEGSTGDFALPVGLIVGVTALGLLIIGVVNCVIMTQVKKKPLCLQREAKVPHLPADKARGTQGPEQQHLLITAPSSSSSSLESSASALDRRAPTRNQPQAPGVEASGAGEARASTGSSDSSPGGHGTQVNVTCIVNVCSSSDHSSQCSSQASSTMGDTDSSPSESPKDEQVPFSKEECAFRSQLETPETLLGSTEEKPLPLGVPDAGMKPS

[2] = target: T2, recombinant human TNFR2 with 6×his tag (human, UniProt P20333 23-257, limits assumed); test: ELISA, IgG coated, hTNFR2-His titrated, anti-His-HRP
T2 construct: Bought (Reprokine, Israel); also called TNFR2-His; hTNFR2-His; not shown: 6xHis tag
T2 sequence (looked up): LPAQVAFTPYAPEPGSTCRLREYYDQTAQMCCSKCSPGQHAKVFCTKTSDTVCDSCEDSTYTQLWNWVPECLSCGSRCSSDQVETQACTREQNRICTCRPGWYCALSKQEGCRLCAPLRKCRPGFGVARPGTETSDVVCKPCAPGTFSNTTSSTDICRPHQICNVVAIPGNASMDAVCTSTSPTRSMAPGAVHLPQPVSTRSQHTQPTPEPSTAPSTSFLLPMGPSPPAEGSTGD
Procedure: IgG binding affinity to TNFR2 was examined by ELISA. 96 well plates (Greiner Bio-One high binding) were coated with (50 ng/well) of the analyzed antibody and incubated overnight at 4° C. The plates were then washed three times with 300 μl PBS buffer containing 0.05% Tween 20 (PBS-T), blocked with 300μ PBS-T supplemented with 1% to 2% BSA, and incubated for 1 hour at room temperature. Antibodies-coated plates were washed three times with 300 μl PBS-T and incubated with serial dilutions of test ligand hTNFR2-His (Reprokine, Israel) in a final volume of […] for 1-2 hours. Plates were then washed three times with 300 μl PBS-T and incubated with 50 μl anti-HIS-HRP (Santa Cruz Biotechnology, USA, SC-8036HRP) conjugate that was diluted 1:250 in PBS. After an additional wash step of six washes, the reaction was developed with […] tetramethylbenzidine (TMB) reagent (Southern biotech, USA), and stopped with […] 0.5N H₂SO₄. Detection was done on a Synergy LX BioTek (BioTek, USA) plate reader with an absorbance filter set to […]. The binding affinity was determined by fitting the data to a specific binding non-linear regression model on Prisma 8 GraphPad software.
To test binding affinity of clones reformatted as IgG1 and IgG1LALA to TNFR2, an ELISA EC₅₀ binding experiment was conducted for each antibody.

Row | Binder | Functional Agonism EC50 (nM), NFkB-SEAP reporter [1] [nM] | EC50 [2] [nM]
1 | BDG30.113 (antibody, human IgG1, kappa, L234A L235A, V domains shown, Human IgG1(L234A/L235A); also called IgG of CID_327) VH: EVQLVQSGPELKKPGASVKVSCKGSGYTFTDLGMGWVRQAPGQGLEWMGWINTQTGEPFYADDFKGRFVFSLDTSVSTAYLQISSLKAEDTAVYYCTRDHPLGLDYWGQGTLVTVSS VL: DIQVTQSPSSLSASVGDRVTITCITSQSVDVAGVSYLNWYQQKPGKVPKFLIHKASNLRSGVPSRFSGSGSGTDFTLTISSLQPEDVATYYCQQAREDPYTFGQGTKVEIKR | 3.8 | 2.5
2 | BDG30.032 (antibody, human IgG1, kappa, Human IgG1; produced in HEK cells by Genscript; also called IgG of CID_436) heavy: not shown light: DIQMTQSPILLSASVGDRVTITCRASQDVSTAVAWSQQRTNGSPRLLIYSASSLYSGVPSRFSGSRSGTDFTLTISSLQPEDIADYYCQQPTYTPPTFGAGTKVEIKRTVAAPSVFIFPPSDEQLKSGTASVVCLLNNFYPREAKVQWKVDNALQSGNSQESVTEQDSKDSTYSLSSTLTLSKADYEKHKVYACEVTHQGLSSPVTKSFNRGEC | 0.85 | 21.9
3 | BDG30.081 (antibody, human IgG1, kappa, V domains shown, Human IgG1; also called IgG of CID_231) VH: EVQLVESGGGLVQPGGSLRLSCAASGFNIRATYIHWVRQSPGKGLEWVADISPDNGDTRYADSVKGRFTISADTSKNTAYLQMNSLRAEDTAIYYCSRDLADGYNAFDLWGQGTLVTVSS VL: DIQMTQSPILLSASVGDRVTITCRASQDVSTAVAWSQQRTNGSPRLLIYSASSLYSGVPSRFSGSRSGTDFTLTISSLQPEDIADYYCQQHGYTPPTFGAGTKVEIKR | – | 50.7
4 | BDG30.084 (antibody, human IgG1, kappa, V domains shown, Human IgG1; also called IgG of CID_234) VH: EVQLVESGGGLVQPGGSLRLSCAASGFNIRAFYIHWVRQSPGKGLEWVADIDPTNGDTRYADSVKGRFTISADTSKNTAYLQMNSLRAEDTAIYYCTREGEDGYNAFDQWGQGTLVTVSS VL: DIQMTQSPILLSASVGDRVTITCRASQDVSTAVAWYQQRTNGSPRLLIYPASSLYSGVPSRFSGSRSGTDFTLTISSLQPEDIADYYCQQPRYTPPTFGAGTKVEIKR | – | 58.9
5 | BDG30.086 (antibody, human IgG1, kappa, Human IgG1; also called IgG of CID_262) heavy: not shown light: DIQMTQSPSSLSASVGDRVTITCRASQDISTAVAWSQQKPGKAPKLLIYPASSLYSGVPSRFSGSRSGTDFTLTISSLQPEDFATYYCQQHPYTPPTFGQGTKVEIKRTVAAPSVFIFPPSDEQLKSGTASVVCLLNNFYPREAKVQWKVDNALQSGNSQESVTEQDSKDSTYSLSSTLTLSKADYEKHKVYACEVTHQGLSSPVTKSFNRGEC | 1.4 | 8.1
6 | BDG30.089 (antibody, human IgG1, kappa, V domains shown, Human IgG1; also called IgG of CID_267) VH: EVQLVESGGGLVQPGGSLRLSCAASGFNIRDYYIHWVRQAPGKGLEWVADIDPTNGDTRYADSVKGRFTISADTSKNTAYLQMNSLRAEDTAVYYCSREGQDGYNAWDLWGQGTLVTVSS VL: DIQMTQSPSSLSASVGDRVTITCRASQDVSTAVAWYQQKPGKAPKLLIYPASSLYSGVPSRFSGSRSGTDFTLTISSLQPEDFATYYCQQHPYTPPTFGQGTKVEIKR | – | 50.4
7 | BDG30.085 (antibody, human IgG1, kappa, Human IgG1; also called IgG of CID_261) heavy: not shown light: DIQMTQSPSSLSASVGDRVTITCRASQDISTAVAWSQQKPGKAPKLLIYSASSLYSGVPSRFSGSRSGTDFTLTISSLQPEDFATYYCQQPSLTPPTFGQGTKVEIKRTVAAPSVFIFPPSDEQLKSGTASVVCLLNNFYPREAKVQWKVDNALQSGNSQESVTEQDSKDSTYSLSSTLTLSKADYEKHKVYACEVTHQGLSSPVTKSFNRGEC | 24.7 | 4.3
8 | BDG30.088 (antibody, human IgG1, kappa, Human IgG1; also called IgG of CID_266) heavy: not shown light: DIQMTQSPSSLSASVGDRVTITCRASQDVSTAVAWYQQKPGKAPKLLIYPASSLYSGVPSRFSGSRSGTDFTLTISSLQPEDFATYYCQQPGYTPPTFGQGTKVEIKRTVAAPSVFIFPPSDEQLKSGTASVVCLLNNFYPREAKVQWKVDNALQSGNSQESVTEQDSKDSTYSLSSTLTLSKADYEKHKVYACEVTHQGLSSPVTKSFNRGEC | 49 | 13.1
9 | BDG30.087 (antibody, human IgG1, kappa, Human IgG1; also called IgG of CID_264) heavy: not shown light: DIQMTQSPSSLSASVGDRVTITCRASQDVSTAVAWSQQKPGKAPKLLIYPASSLYSGVPSRFSGSRSGTDFTLTISSLQPEDFATYYCQQPTLTPPTFGQGTKVEIKRTVAAPSVFIFPPSDEQLKSGTASVVCLLNNFYPREAKVQWKVDNALQSGNSQESVTEQDSKDSTYSLSSTLTLSKADYEKHKVYACEVTHQGLSSPVTKSFNRGEC | 3.9 | 18.4

Further lines, results first:

Row | Functional Agonism EC50 (nM), NFkB-SEAP reporter [1] [nM] | EC50 [2] [nM] | Binder
10 | 6.4 | 2.2 | BDG30.114 (antibody, human IgG1, kappa, L234A L235A, V domains shown, Human IgG1(L234A/L235A); also called IgG of CID_328) VH: EVQLVQSGPELKKPGASVKVSCKGSGYTFTDLGMNWVRQAPGQGLEWMGWINTQTGEPFYADDFKGRFVFSLDTSVSTAYLQISSLKAEDTAVYFCARDHPLGLDYWGQGTLVTVSS VL: DIQVTQSPSSLSASVGDRVTITCITSQSVDVNGVSYLNWYQQKPGKVPKFLIYKASILRSGVPSRFSGSGSGTDFTLTISSLQPEDVATYYCQQSREDPYTFGQGTKVEIKR
11 | 1 | – | BDG30.115 (antibody, human IgG1, kappa, L234A L235A) heavy: not shown light: DIQMTQSPILLSASVGDRVTITCRASQDVSTAVAWSQQRTNGSPRLLIYSASSLYSGVPSRFSGSRSGTDFTLTISSLQPEDIADYYCQQPTYTPPTFGAGTKVEIKRTVAAPSVFIFPPSDEQLKSGTASVVCLLNNFYPREAKVQWKVDNALQSGNSQESVTEQDSKDSTYSLSSTLTLSKADYEKHKVYACEVTHQGLSSPVTKSFNRGEC
12 | 3.1 | – | BDG30.204 (antibody, human IgG1, kappa, L234A L235A) heavy: not shown light: DIQMTQSPSSLSASVGDRVTITCRASQDVSTAVAWYQQKPGKAPKLLIYPASSLYSGVPSRFSGSRSGTDFTLTISSLQPEDFATYYCQQPGYTPPTFGQGTKVEIKRTVAAPSVFIFPPSDEQLKSGTASVVCLLNNFYPREAKVQWKVDNALQSGNSQESVTEQDSKDSTYSLSSTLTLSKADYEKHKVYACEVTHQGLSSPVTKSFNRGEC
13 | 0.5 | – | BDG30.203 (antibody, human IgG1, kappa, L234A L235A) heavy: not shown light: DIQMTQSPSSLSASVGDRVTITCRASQDVSTAVAWSQQKPGKAPKLLIYPASSLYSGVPSRFSGSRSGTDFTLTISSLQPEDFATYYCQQPTLTPPTFGQGTKVEIKRTVAAPSVFIFPPSDEQLKSGTASVVCLLNNFYPREAKVQWKVDNALQSGNSQESVTEQDSKDSTYSLSSTLTLSKADYEKHKVYACEVTHQGLSSPVTKSFNRGEC
14 | 2.9 | – | BDG30.202 (antibody, human IgG1, kappa, L234A L235A) heavy: not shown light: DIQMTQSPSSLSASVGDRVTITCRASQDISTAVAWSQQKPGKAPKLLIYSASSLYSGVPSRFSGSRSGTDFTLTISSLQPEDFATYYCQQPSLTPPTFGQGTKVEIKRTVAAPSVFIFPPSDEQLKSGTASVVCLLNNFYPREAKVQWKVDNALQSGNSQESVTEQDSKDSTYSLSSTLTLSKADYEKHKVYACEVTHQGLSSPVTKSFNRGEC
15 | 3 | 5.1 | BDG30.116 (antibody, human IgG1, kappa, L234A L235A, Human IgG1(L234A/L235A); also called IgG of CID_262) heavy: not shown light: DIQMTQSPSSLSASVGDRVTITCRASQDISTAVAWSQQKPGKAPKLLIYPASSLYSGVPSRFSGSRSGTDFTLTISSLQPEDFATYYCQQHPYTPPTFGQGTKVEIKRTVAAPSVFIFPPSDEQLKSGTASVVCLLNNFYPREAKVQWKVDNALQSGNSQESVTEQDSKDSTYSLSSTLTLSKADYEKHKVYACEVTHQGLSSPVTKSFNRGEC
